Experiment: label from the status in PepcDB records
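Note: failed if final PepcDB status was selected cloned or expressed and not failed if soluble or beyond.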

In the case of “MDGTVTPSPITTAMPPVSALDAGTPTLPPEAPLAMPEQNLREGSLQVRHQRTSPPGIGVRRFYLIGGTFATTAIAVWVMLSVLWPDGISVLEGCLLGLFVLLFAWIAMSFASAVAGFVTVVARAGRKLGIDPEQPLPTLRSRTALLMPTYNEDPRRLLAGLQAIYESVAETGQLEHFDFFVLSDTTREHIGRAEELVYNALCDRVGGHGRIFYRRRADNAARKAGNVADWVRRFGGSYPQMLILDADSVMTGDTIVRLVAGMENNPDVGLIQTLPAVVNGQTLFARMQQFGGRVYGPIIAFGVAWWHGAESNYWGHNAIIRTQAFADHAGLPSLRGRKPFGGHVLSHDFVEAALMRRGGWAMHMVPYLQGSYEEGPPTLTDLLIRDRRWCQGNLQHAKVVGAKGLHWISRMHMLIGIGHYFTAPMWGLLMLIGIGIPLAGGDIDLAGDLPFSPARYWHGSSQGNAIWIFVCTMFVLLAPKLLGYIALLLNPRELRACGGAFRAAVSILLETVLAALMAPVVMYLQSRGVFEVLAGKDSGWDAQVRDDGKLSWPALLRSYGGLTVFGLFMGAVAYAVSPALAAWMGPVIVGMALSIPVVALTSLRRTGMALRRAGIFCIPEELDPPKVLVRASELRRAAALEPSLI”, the protein production is reported as “failed”.
For “MQPTGNQIQQNQQQQQQLIMRVPKQEVSVSGAARRYVQQAPPNRPPRQNHQNGAIGGKKSSVTIQEVPNNAYLETLNKSGNNKVDDDKLPVFLIKLWNIVEDPNLQSIVHWDDSGASFHISDPYLFGRNVLPHFFKHNNMNSMVRQLNMYGFRKMTPLSQGGLTRTESDQDHLEFSHPCFVQGRPELLSQIKRKQSARTVEDKQVNEQTQQNLEVVMAEMRAMREKAKNMEDKMNKLTKENRDMWTQMGSMRQQHARQQQYFKKLLHFLVSVMQPGLSKRVAKRGVLEIDFCAANGTAGPNSKRARMNSEEGPYKDVCDLLESLQRETQEPFSRRFTNNEGPLISEVTDEFGNSPVGRGSAQDLFGDTFGAQSSRYSDGGATSSREQSPHPIISQPQSNSAGAHGANEQKPDDMYMGSGPLTHENIHRGISALKRDYQGASPASGGPSTSSSAPSGAGAGARMAQKRAAPYKNATRQMAQPQQDYSGGFVNNYSGFMPSDPSMIPYQPSHQYLQPHQKLMAIEDQHHPTTSTSSTNADPHQNLYSPTLGLSPSFDRQLSQELQEYFTGTDTSLESFRDLVSNHNWDDFGNNVPLDDDEEGSEDPLRQLALENAPETSNYDGAEDLLFDNEQQYPENGFDVPDPNYLPLADEEIFPHSPALRTPSPSDPNLV”, the protein production was “not failed”.
With “MAAPSGVPPMRVLEELGINLSPTGEVTETEAVAAEGAYYLEQVTITETSEDECEYEEIPDDNFSIPEGEEDLAKAIHMVDEQATDTHILEQQTILPSRHVMQEAIEDFLCNFLIKMGMTRTLDCFQAEWYELIQKTGSDLRTLGNVPDVYSQVMLLETENKNLKKDLKHFKQAAEKAKEDLLKTQKERDFHRMHHKRILQEKNKLIADLKGLKLHYASYEPTIRVLHEKHHALLKEKMLTSLERDRAVGKISGLQATLKNIDIGHIQVPVIKGSYETASILRELGDKAGHTYEKENSSEGPTQKNLREAREENGYKTKMKSERKDSEFPVDMQPDPNLTACTESLPTAKFDYRLNNIFRLHELPVSCICTHSVRDTMILCSEVRMWAGVGMDSGSISITPSGISRWISGCCDHPNRSWLLTSNGNRTLSLWELPEGKCTLTLQSLCQHHHFIWSCSWHICSRCAAQSSYRSTPKVWFLSVERCRYTLYGHTDSVNSIEFFPFSNTLLTASADKTLSVWDARTSHCQQSLYGHIRNIHIVKFTTPRLRGHILASCDSRGVIKLWDFRKLIPIVSIDVGPSPGNEVNFDPSGRVLAQASANGIIHLLDLKSGQIHKLVGHESEVHTVIFSHRAENLYSGGSDGTIRLWL” the protein production was “failed”.
For “MADTVEEPQLQNGAAPAESETEQNPIPEPQLQTEPKLTGEIPEIEADLTPEEVQSEVTDAKPEEVQSEVKPEEVKTVVTDAKPEEAQSEVKPEEVQSVVTDTKPDLTDVDLSPGGSEEIPIRSTEVEQESTTSVLKKDDDGNKTFTMRELLSELKSEEGDGTPHSSASPFSRESASQPAENNPAMDLINRIQVNDEEGRSRQRVLAFAARKYASAIERNPDDHDALYNWALILQESADNVSPDSVSPSKDDLLEEACKKYDEATRLCPTLYDAYYNWAIAISDRAKIRGRTKEAEELWEQAADNYEKAVQLNWNSSQALNNWGLVLQELSQIVPAREKEKVVRTAISKFRAAIRLQFDFHRAIYNLGTVLYGLAEDTLRTGGSGNGKDMPPGELYSQSAIYIAAAHSLKPSYSVYSSALRLVRSMLPLPHLKVGYLTAPPVGNSLAPHSDWKRTEFELNHERLLQVLKPEPREMGRNLSGKAETMSTNVERKTVKVNITEIVSVTPCADLTLPPGAGLCIDTIHGPVFLVADSWESLDGWLDAIRLVYTIYARGKSDVLAGIITG”, the protein production was “failed”.
With “MGCFASRPNDTGGNRRKPTSIGDVSVYVPGLRIPKPVEFSQSLGDQLPKTLVERLTALRTRIVVMANQEGPTITRTRRKTQHGGSTLADLHHALEDYIPVLLGLTKDGSHLQFKVQFNWVNQEDEEEETAMSNVWYEILSVLHLMAMLQMSQANLLLLPRGSSDGYHPKISEENRRASIDIFLKAAGYLDCAVKHVLPHFSTEQRRSLPIDLAEGALRALCLQALGQGVDIQLGMAIDSAKATLAVKRRLSCEMVKYWQQAQDNLMNLPLANGWGEKHMLFVKWKYVEAKAAAYYYHGLILDEGNTEKSHGMAVAALQAADECLKESKKASEAFNTSSPTSRTPSLFGTMKYLSEKIPKETSSKVRINRDLYSYEKIMETAPTLPDFALALKPDEYQLPSVDASWSEASLRTKNTSNHI” the protein production was “not failed”.
For “MSTEKIINLAAYAGKILLQSGAEIYRVEETMNKICTAFNVKEAESFVTPTGIIISITGEDEKITSTIKRIQVRTVDLRKISEVNDLSRTLQYKNFSLEEVADKLKKIDNEKKHSDLFLIFFSAVAAGFFTLIFGGTFRDFSVSFFIGIIIKIFSIIISRLEINDFFLNMVGGAIAAFIALLFKKLGVVVYLDKTIIGSIMLLVPGLAITNAVRDTIAGDLVSGVSRALDAFFTAVAIAAGTGLVFKIWINFFGGTGL”, the protein production was “failed”.
In the case of “MSVTVRVPAKVNVQLAVGAARPDGFHDLANVFLAVSLYDEVTATPAADGLRVTCEGPDAGQVPLDRTNLAARAAEALAARYGRAPDVHLHIAKDIPVAGGMAGGSADGAGALLACDALWGTGASREELLEICAGLGSDVPFSLVGGAALGTGRGERLAELE”, the protein production is reported as “failed”.
For “EVLPDGVINVLGASNCPSKGIDRGGVIDLDAAVNSIQRAIEQAESVSNCQIMGVTLAISGQHITALNESGVIPLSGTVVRKEDIDAAIHIAHSIKLPDG”, the protein production was “failed”.
For “MFMEVSLTSLPAHVMNALDAIWEGSIADSLESETLEFKEDPSCAGRGKQHGNPQAALIEKLIDEAVCLANGDAGTGHIVVGIKDKIGGPEAFTGTTFDTEKIAKKIFDGTRPNLRPEVHEVRYQNNRLIVIYIPEALSLYSRSKGQTSKRVGSHCEPLSEEQRRAIAATRAHADYSNGISEFNVDDIAADTIQEVRRLLKTKRAQSGIDTSLPTTTNGLLRELGLIDNYGALKRAGAILLLPAPEGQLSIRHFWRSFPGIDPEVTDYNQPLLIALSSLKRRITENANKEIKRIQFSDGQEIAVSAFPQTAVDEVVTNAIIHRDWRLSRPVVIDQSPQTLKVWSPGSLPVGVTPNRLLTTQSIPRNSRLMSAMRMLGLAEESSRGFDRIWAALLGSGRDIPDVHTEDTFVEVILHSGNPDESFIKALHELSLSFNPDMLHSVNTLIVLWHLWTSPVISLKQARVKTQTSSKEATELMFALESNGLLTQIHNTDEWFLSEKARKTTNYYQSETIPQSSVQTWVEEKLSSGSPISAAEIAESIGMPRPEITEILRNLRRAGKAHIDPSGPQRGSGTRWIKGT”, the protein production was “failed”.
For “MINVEQVFALDIGTRLVMGLIMEKAPGGYHIIARAQTEHRQRAMYDGQIHDIEEVAQAVQRVKEELEEKIKGKLHYVSVAAAGRALKTAVATAQKSELIPMIWEREDIFALEMEAVQQALREIQAEDEIIPYHCVGYSTIESLLEGQNLSSLSGQRGKEAQVKVIATFLPRTVIDGLTRVISKVGLEMRELTLEPIAAGRAAIPPDMRRMNLALVDVGAGTSDIALTKSGSFFAYGMVPMAGDEITERICQHFLVDFQTGEKIKRSLNTKTKVTFTDFLGMKTTVNKEEVLEQIQPVVLELAQKLADEILRLNQGNPHAIILIGGGSQTPLLAEVLSDLLELPRNRVGIQVRERIQGVSGEKSLKGPDAITPIGIGISTIEGEGLQYFSVHVNDLTVQIFELQLATVSDALLAAGITPRLLVGRPGSALTVELNGDIKVSKGQFSKPAQFFLNGEEVKLDHELKPGDKIQFIPAQDGENAQATFADLVPAIPEKKIKVNGESVVFTAQIFCNGRPVTRDGDVPDGAKITVFQNQTLKDLLHFLNDKQYSLSEIRYKINGEERVIPIHKEFYINQQKVALERMIKDGDDLVILVKEVYIKDLQLKPTPMVFYVNGQEVEYPPQIFRILSRGRVLSDQEKVVDGMELSVEGYDTMPLLSELLPYVNIPQDVPANARLSLKRNNQEAEFTTPLIPGDRIEIHWEQVASALLEHHHHHH”, the protein production was “not failed”.
For “MKLQVLPLSQEAFSAYGDVIETQQRDFFHINNGLVERYHDLALVEILEQDRTLISINRAQPANLPLTIHELERHPLGTQAFIPMKGEVFVVVVALGDDKPDLSTLRAFITNGEQGVNYHRNVWHHPLFAWQRVTDFLTIDRGGSDNCDVESIPEQELCFA”, the protein production was “not failed”.
In the case of “MASLAFIQAFLESFKGFLSQATLISVLIASVLILFCAILLLLALLLRNRLASYIATAAFLGAFLSMPFVLNILLTQAIYPIETRILHANPLSYSNAFSLQVGVKNHSKFTLNKCVLRLEVLKNPHNFVEEHAFKWFVKKSYEKIFKEKILPKESKVFSFFIDNYPYSKTAPYQVSLFCL”, the protein production is reported as “failed”.
In the case of “MEGTVFTPCLEGMKHVKSDQGEMLTKPFLELCKTILPVIDKFGAAMTLVKSDIGGNITRLEKNYLSDPDKFKYLYTFVQVEIESKIAKGSSSCTNGLLWLTRAMDFLVELFRNLVAHQDWSMPQACADSYQKTLKKWHGWLASSTFSMALKLAPDRKKFMDVISGSGNIQADMERFCAEFGPFLHDNHKFLASVGMDDMKAS”, the protein production is reported as “not failed”.
For “MAKAQTVTILSPVNGDVIALNKVKDPVFSAGMMGLGFGVQPSSGEVVAPVSGQVTMVAETKHAIGFTTPDDHLEVLVHLGIDTVDLKGAPFTVKVAAGDDVQAGDVIATMDLAAIQAANRQTTVILAVTNTSDKLESLDVVTGAKAAGDVTATGRLNANTFNAKRQNRLPKAGKYDQLAADIVANVGGVENVSSLIHCITRLRFYLKDESKANDDVVRDLKGVIDVAKAGGQYQVVIGPAVTDVYDAIIKQIGPGFSNDSETAKAVAETAAAAQRPTTPWGKVKWGISNLIGVITGSMIPVIGLLAASGILKGILALLTTFNLVSPTAPTYVIINAMGDSVFYFLPIFVGFTAGKKLGADPVIMGIIGGVLTYPAIVTMASGKATSTLLGMGINANFFGLPVHVASYTYSIFPMIAGAWLASKLEPWLKRVIPTVLRMIFVPLFEVVIVSGAILLFLGPIITVLSTGLANIIVWVYNLSPAISGLIIGGFYQVLVIFGLHWAVIPIVANDIATTGHSYLNAIVSATMVAQGGAVFAIALKSKLANIQELAWPATISAFCGVTEPAMYGINLKYGRAFVTASIGAAVGGFLTGLMNVNMWGFTGSLIGFTSFVNPKGLDFSFYGFLIASAATIVVSFALTWMFGFKDEDANAVKVAPKKRHLGATA”, the protein production was “failed”.
With “MYSELKEGVNLYNKKDYQEALVFFLSVSTEDVLIKIEINYYIGLIYSRLSEYEQALEYLEQVVTASKDIAKVYQCRLILAFIYANTGRTRLAEFELSKLIEAGYESVQVFSSLAYVYYEHHEIEKAIDYYEKALKTAPENSTALNGLAYILAETDRDLTRSLLLCKKAVEKQPENPAYLDSMALIYHKMNLPSEAKSYITRAKEKLPDNKIILKHFEMISSDAREA” the protein production was “failed”.
For “MKTEMLHTQEDILKMLDSLLRPAEPFWNEFYENREKDVPFFENVPDENLVSYIQKERVLKGKVLELGCGPGRNAIYLANEGFDVTAVDLSVEGINWAKERALAKGVEIHFICDSIFNLEVQNEFDFVYDSGCLHHIPPHRRINYVDLIKNSLKSGGYFGLTCFAAGDLDERNGSEITDWDVYREWSLQGGLAYSEEKLREIFKELEVIEIRRMKQMKQPNEMFGESFLWTALFKKK”, the protein production was “failed”.
